Read-outs that look alike come from different tables or passages of the source.

Assay [1] has as its target T1, BCMA-his protein (Cat #: BCA-H522y, ACRO) (human, UniProt Q02223 1-54).
T1 construct: Bought recombinant protein; the construct is most likely only a soluble part of it; also called BCMA protein; human BCMA
T1 sequence: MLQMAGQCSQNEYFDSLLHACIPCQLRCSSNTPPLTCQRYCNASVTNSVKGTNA
Put plainly: ELISA, coated BCMA protein. The method, then:
(§1) Briefly, an ELISA plate was coated with 100 μl 1 μg/ml BCMA protein (Cat #: BCA-H522y, ACRO) in PBS overnight at 4° C. Then, the plate was blocked with 250 μl PBST with 4% skimmed milk at room temperature for 1 h. […] The negative control well was added with PBST instead of the antibody. The plate was washed with PBST for three times, added with 100 μl HRP conjugated goat anti-human IgG (1:7000, Cat #: 31413, thermofisher), and incubated at room temperature for 1 h. The plate was washed again with PBST for four times, added with 100 μl freshly prepared TMB (Cat #: 555214, BD, USA), and left still for color development, which was terminated with 50 μl 10% H₂SO₄. The absorbance was read at 450 nm, and the data was processed and analyzed using GraphPad.
On the technique in general: In an ELISA, binding on a coated surface is turned into a signal by an enzyme label.

Assay [2] addresses T2, human BCMA on HEK293A/human BCMA cells (human, UniProt Q02223 1-184).
T2 sequence: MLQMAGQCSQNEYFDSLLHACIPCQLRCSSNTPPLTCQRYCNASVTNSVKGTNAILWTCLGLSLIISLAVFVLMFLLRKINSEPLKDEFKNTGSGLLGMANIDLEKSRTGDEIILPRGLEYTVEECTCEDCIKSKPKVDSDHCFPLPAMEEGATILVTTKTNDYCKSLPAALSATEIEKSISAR
Put plainly: flow cytometry on HEK293A/human BCMA cells. The method, then: (§2) The anti-BCMA antibody's binding capability to cell surface BCMAs was tested by FACS. Briefly, HEK293A/human BCMA cells, HEK293A/monkey BCMA cells and HEK293A/mouse BCMA cells, as generated in Example 1, were collected, digested with trypsin, and subjected to centrifugation at 300 g for 5 min. The cells were suspended in PBS, and subjected to centrifugation again. The cells were re-suspended in PBS with 2% FBS at the cell density at 4×10⁶/ml, and 50 μl cells were seeded onto a U-bottom plate. […] The plate was washed with 2% FBS-PBS for three times, added with 50 μl PE-labeled goat-anti-human IgG (H+L) (1: 500), and incubated at room temperature for 45 min. The plate was washed with 2% FBS-PBS again for three times, and added with 150 μl 2% FBS-PBS to suspend the cells. The plate was measured for cell fluorescence using a cytometry, and the data was processed with FlowJo and analyzed with GraphPad.
On the technique in general: In flow cytometry, cells or beads pass a laser one at a time.

In assay [3] the target is T3, human TACI on HEK293A/human TACI cells (human, UniProt O14836 1-293).
T3 sequence: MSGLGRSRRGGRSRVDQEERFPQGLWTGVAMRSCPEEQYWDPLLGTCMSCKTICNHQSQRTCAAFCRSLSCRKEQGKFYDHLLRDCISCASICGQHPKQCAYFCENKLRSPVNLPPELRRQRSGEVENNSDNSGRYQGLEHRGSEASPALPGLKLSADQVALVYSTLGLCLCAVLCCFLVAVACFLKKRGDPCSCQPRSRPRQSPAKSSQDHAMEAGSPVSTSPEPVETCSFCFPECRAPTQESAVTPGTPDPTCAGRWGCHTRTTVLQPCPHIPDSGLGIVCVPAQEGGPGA
Put plainly: flow cytometry on HEK293A/human TACI cells.

Assay [4] deals with T4, mouse BCMA on HEK293A/mouse BCMA cells (mouse, UniProt O88472 1-185).
T4 sequence: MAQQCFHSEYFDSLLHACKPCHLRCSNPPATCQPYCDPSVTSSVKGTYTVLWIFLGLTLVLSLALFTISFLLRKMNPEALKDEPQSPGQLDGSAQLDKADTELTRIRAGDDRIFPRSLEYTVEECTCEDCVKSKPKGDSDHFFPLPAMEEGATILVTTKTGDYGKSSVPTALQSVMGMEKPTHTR
Nature of the assay: flow cytometry on HEK293A/mouse BCMA cells. How it is done: as §2

Assay [5] has as its target T5, human BAFFR on HEK293A/human BAFFR cells (human, UniProt Q96RJ3 1-184).
T5 sequence: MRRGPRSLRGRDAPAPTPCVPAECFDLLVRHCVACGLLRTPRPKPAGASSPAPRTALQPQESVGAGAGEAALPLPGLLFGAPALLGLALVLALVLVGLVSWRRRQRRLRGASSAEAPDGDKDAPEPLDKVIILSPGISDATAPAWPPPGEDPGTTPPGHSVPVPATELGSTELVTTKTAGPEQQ
Put plainly: flow cytometry on HEK293A/human BAFFR cells.

In assay [6] the target is T6, monkey BCMA on HEK293A/monkey BCMA cells (monkey, UniProt Q02223 1-184 (human entry)). Nature of the assay: flow cytometry on HEK293A/monkey BCMA cells. The method, then: as §2
T6 sequence (Q02223 other isoform, or with tags, fused parts or gaps): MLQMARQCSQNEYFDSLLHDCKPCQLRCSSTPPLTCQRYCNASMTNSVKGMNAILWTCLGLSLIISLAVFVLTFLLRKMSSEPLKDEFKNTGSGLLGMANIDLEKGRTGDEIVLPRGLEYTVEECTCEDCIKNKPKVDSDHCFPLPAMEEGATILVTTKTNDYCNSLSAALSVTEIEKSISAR
Assay [7] deals with T2, human BCMA on HEK293A/human BCMA cells. Nature of the assay: flow cytometry on HEK293A/human BCMA cells, without soluble BCMA. How it is done:
Briefly, 10⁵ HEK293A/human BCMA cells in 100 μl culture medium were seeded on a 96-well plate, and the plate […] After 1-h incubation at 4° C., the plate was washed with PBS for three times, added with APC-goat-anti-mouse IgG (1:500 dilution, Cat #: 405308, BioLegend, US), inducted at 4° C. for 1 h, washed with PBS for three times, and measured for cell fluorescence using a FACS analyzer (BD).

The target of assay [8] is T1, BCMA-his protein (Cat #: BCA-H522y, …). Nature of the assay: SPR (BIAcore 8K), antibody captured by anti-human Fc, BCMA protein as analyte. How it is done:
Briefly, the mouse anti-human Fc antibody (Cat #: BR100839, cytiva) was coupled to CMS biosensor chip. […] Chip regeneration was performed with 3 M MgCl₂.
For orientation: SPR reads the build-up and loss of mass on a sensor chip optically.

For assay [9], the target named is T2, human BCMA on HEK293A/human BCMA cells. Nature of the assay: flow cytometry on HEK293A/human BCMA cells in the presence of 1 µg/ml soluble human BCMA-his protein. The method, then:
Briefly, 10⁵ HEK293A/human BCMA cells in 100 μl culture medium were seeded on a 96-well plate, and the plate was further added with 50 μl serially diluted antibody or PBS followed by the human BCMA-his proteins (Cat #: 10620-H08H, Sino Biological) at the final concentration of 1 μg/ml. After 1-h incubation at 4° C., the plate was washed with PBS for three times, added with APC-goat-anti-mouse IgG (1:500 dilution, Cat #: 405308, BioLegend, US), inducted at 4° C. for 1 h, washed with PBS for three times, and measured for cell fluorescence using a FACS analyzer (BD).

Assay [10] deals with T7, CD3D&E protein (Cat #: CT038-H2508H, Sino Biological) (human, UniProt P04234 22-105; P07766 23-126).
T7 construct: Bought complex of the delta and epsilon chains; also called CD3D&E complex; human CD3D&E complex
T7 sequence (P04234 22-105, form in doubt, chain 1 of 2): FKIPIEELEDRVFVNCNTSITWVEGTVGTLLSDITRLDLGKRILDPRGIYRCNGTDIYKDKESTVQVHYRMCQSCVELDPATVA
T7 sequence (P07766 23-126, form in doubt, chain 2 of 2): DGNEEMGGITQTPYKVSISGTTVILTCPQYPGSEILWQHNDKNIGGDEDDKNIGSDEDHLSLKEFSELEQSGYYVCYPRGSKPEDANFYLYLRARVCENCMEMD
Put plainly: ELISA, coated CD3D&E. The method, then:
(§3) The purified bispecific antibodies were tested for their binding capability to recombinant human CD3 and human BCMA proteins by ELISA, following the protocols in Example 4 and Example 9.

For assay [11], the target named is T1, BCMA-his protein (Cat #: BCA-H522y, …). Nature of the assay: ELISA, coated BCMA protein. The method, then:
as §1, §3
The source holds these as a separate data set.

A further assay concerns the target T8, CD3 on Jurkat cells (UniProt P04234 22-171; P07766 23-207).
T8 construct: whole, on cells
Put plainly: flow cytometry on Jurkat cells. The method, then: Jurkat cells were collected, centrifuged at 300 g for 5 min, and suspended in PBS. After another centrifugation, the cells were suspended in 2% FBS-PBS at the cell density of 3×10⁶/ml, and […] were plated onto a U-bottom plate. The plate was added with 50 μl serially diluted anti-CD3 antibodies of the disclosure in 2% FBS-PBS (4-fold dilution, starting at 20 μg/ml), and incubated at room temperature for 1 h. The plate was washed with 2% FBS-PBS for three times, added with 50 μl PE-labeled goat-anti-human IgG (H+L) (1: 500), and incubated at room temperature for 45 min. The plate was washed with 2% FBS-PBS again for three times, and added with 150 μl 2% FBS-PBS to suspend the cells. The plate was measured for cell fluorescence using a cytometry, and the data was processed with FlowJo and analyzed with GraphPad.
Following the protocol of Example 11, the bispecific antibodies of the disclosure were tested for their binding capability to Jurkat cells.

Assay [12] addresses T7, CD3D&E protein (Cat #: CT038-H2508H, …). Put plainly: SPR (BIAcore 8K), protocol of Example 10. The method, then:
Following the protocols in Example 5 and Example 10, the bispecific antibodies of the disclosure were tested for their binding affinity to CD3D&E and human BCMA.

Assay [13] concerns the target T2, human BCMA on HEK293A/human BCMA cells. Put plainly: flow cytometry on HEK293A/human BCMA cells. How it is done:
as §2
(§4) Following the protocol of Example 6, the bispecific antibodies of the disclosure were tested for their binding capability to the HEK293A/human BCMA cells, HEK293A/monkey BCMA cells, and HEK293A/mouse BCMA cells as generated in Example 1.
The source holds these as a separate data set.

Assay [14] concerns the target T6, monkey BCMA on HEK293A/monkey BCMA cells. Nature of the assay: flow cytometry on HEK293A/monkey BCMA cells. How it is done:
as §2, §4
This is another data set of the same source.

In assay [15] the target is T4, mouse BCMA on HEK293A/mouse BCMA cells. Put plainly: flow cytometry on HEK293A/mouse BCMA cells [continued) F]. The method, then: as §2, §4

T8 sequence (P04234 22-171, chain 1 of 2): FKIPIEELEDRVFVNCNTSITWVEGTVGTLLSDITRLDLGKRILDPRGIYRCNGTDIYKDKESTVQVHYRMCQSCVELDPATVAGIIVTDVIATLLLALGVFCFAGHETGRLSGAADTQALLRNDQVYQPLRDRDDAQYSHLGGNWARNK
T8 sequence (P07766 23-207, chain 2 of 2): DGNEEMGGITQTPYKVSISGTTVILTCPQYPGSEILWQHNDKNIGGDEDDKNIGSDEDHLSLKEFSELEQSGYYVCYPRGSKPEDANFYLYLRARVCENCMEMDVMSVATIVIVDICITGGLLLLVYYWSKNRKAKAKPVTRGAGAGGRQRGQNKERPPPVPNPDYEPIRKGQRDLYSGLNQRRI

B1: anti-BCMA antibody A6-3, full-length human IgG1/kappa (antibody, V domains shown)
VH: QVQLVQSGAEVKKPGASVKVSCKASGYTFTNHIIHWVRQAPGQGLEWMGYINPYPGYHGYNDKFSGRATMTSDTSTSTVYMELSSLRSEDTAVYYCARDGYYRDQDVLDYWGQGTLVTVSS
VL: DIQMTQSPSSLSASVGDRVTITCKASQDISQYLNWYQQKPGKAPKLLIYYTSGLHPGVPSRFSGSGSGTDFTFTISSLEPEDIATYYCQQGYALPWTFGQGTKVEIKR
notes: Expressed in HEK293F cells, purified on Protein A
With B1, the EC50 (in general, the midpoint of the concentration-response curve) in assay [1] is 0.00733 µg/mL; in assay [2], 0.0415 µg/mL; in assay [6] it was 0.0986 µg/mL. Besides, the binding result is “no binding (tested: 100 µg/ml and 10 µg/ml)” in assay [3]; “no binding” in assay [4]; “no binding (tested: 100 µg/ml and 10 µg/ml)” in assay [5]. In addition, the EC50 (read off the curve) (usually the concentration giving half of the maximal effect) is roughly 0.4 µg/mL in assay [7] and roughly 1 µg/mL in assay [9]. Moreover, the dissociation constant Kd (usually the free concentration of one partner at which half of the binding sites on the other are occupied at equilibrium, for simple one-to-one binding) in [8] worked out at 0.132 nM.

B2: anti-CD3/BCMA bispecific antibody MBS305-L-KIH (bispecific antibody, human IgG1, kappa, L234A L235A, N297A)
heavy 1: QVQLVQSGAEVKKPGASVKVSCKASGYTFTNHIIHWVRQAPGQGLEWMGYINPYPGYHGYNDKFSGRATMTSDTSTSTVYMELSSLRSEDTAVYYCARDGYYRDQDVLDYWGQGTLVTVSSASTKGPSVFPLAPSSKSTSGGTAALGCLVKDYFPEPVTVSWNSGALTSGVHTFPAVLQSSGLYSLSSVVTVPSSSLGTQTYICNVNHKPSNTKVDKKVEPKSCDKTHTCPPCPAPEAAGGPSVFLFPPKPKDTLMISRTPEVTCVVVDVSHEDPEVKFNWYVDGVEVHNAKTKPREEQYASTYRVVSVLTVLHQDWLNGKEYKCKVSNKALPAPIEKTISKAKGQPREPQVYTLPPSREEMTKNQVSLSCAVKGFYPSDIAVEWESNGQPENNYKTTPPVLDSDGSFFLVSKLTVDKSRWQQGNVFSCSVMHEALHNHYTQKSLSLSPGK
light 1: not shown
heavy 2: QVQLVQSGAEVKKPGASVKVSCKASGYTFTNHIIHWVRQAPGQGLEWMGYINPYPGYHGYNDKFSGRATMTSDTSTSTVYMELSSLRSEDTAVYYCARDGYYRDQDVLDYWGQGTLVTVSSGGGGSGGGGSGGGGSGGGGSDIQMTQSPSSLSASVGDRVTITCKASQDISQYLNWYQQKPGKAPKLLIYYTSGLHPGVPSRFSGSGSGTDFTFTISSLEPEDEATYYCQQGYALPWTFGQGTKLTAKRGGGGSGGGGSGGGGSEVQLVESGGGLVQPGRSLRLSCAASGFTFGDYAMHWVRQAPGKGLEWVSGISWNHGHIGYADSVKGRFTISRDNAKKSLYLQMNSLRAEDTALYYCAKDNSGYGHYYYGMDVWGQGTTVTVASASTKGPSVFPLAPSSKSTSGGTAALGCLVKDYFPEPVTVSWNSGALTSGVHTFPAVLQSSGLYSLSSVVTVPSSSLGTQTYICNVNHKPSNTKVDKKVEPKSCDKTHTCPPCPAPEAAGGPSVFLFPPKPKDTLMISRTPEVTCVVVDVSHEDPEVKFNWYVDGVEVHNAKTKPREEQYASTYRVVSVLTVLHQDWLNGKEYKCKVSNKALPAPIEKTISKAKGQPREPQVYTLPPSREEMTKNQVSLWCLVKGFYPSDIAVEWESNGQPENNYKTTPPVLDSDGSFFLYSKLTVDKSRWQQGNVFSCSVMHEALHNHYTQKSLSLSPGK
light 2: not shown
For the molecule B2, the EC50 in assay [10] was found to be 0.267 µg/mL; in assay [11], 0.0196 µg/mL; with CD3 on Jurkat cells, 0.00301 µg/mL; in assay [13], 0.187 µg/mL; in [14] it was 0.289 µg/mL. This molecule also gave a Kd in assay [12] of 675 nM. Besides, the binding result in assay [15] is recorded as “no binding (tested: about 30000 ng/ml (LOG10 about 4.5))”.

The record behind these values is patent US20230348630A1 (BEIJING MABWORKS BIOTECH, published 2023).
